Laboratory results: patent US20110306057A1 (Dana-Farber, published 2011)

B5: cancer-derived FLAG-tagged PP2A Aβ mutant G8R (other, UniProt P30154 1-601, looked up, not shown: small tags and cut ends)
chain: MAGASELRTGPGAAGGDGDDSLYPIAVLIDELRNEDVQLRLNSIKKLSTIALALGVERTRSELLPFLTDTIYDEDEVLLALAEQLGNFTGLVGGPDFAHCLLPPLENLATVEETVVRDKAVESLRQISQEHTPVALEAYFVPLVKRLASGDWFTSRTSACGLFSVCYPRASNAVKAEIRQQFRSLCSDDTPMVRRAAASKLGEFAKVLELDSVKSEIVPLFTSLASDEQDSVRLLAVEACVSIAQLLSQDDLETLVMPTLRQAAEDKSWRVRYMVADRFSELQKAMGPKITLNDLIPAFQNLLKDCEAEVRAAAAHKVKELGENLPIEDRETIIMNQILPYIKELVSDTNQHVKSALASVIMGLSTILGKENTIEHLLPLFLAQLKDECPDVRLNIISNLDCVNEVIGIRQLSQSLLPAIVELAEDAKWRVRLAIIEYMPLLAGQLGVEFFDEKLNSLCMAWLVDHVYAIREAATNNLMKLVQKFGTEWAQNTIVPKVLVMANDPNYLHRMTTLFCINALSEACGQEITTKQMLPIVLKMAGDQVANVRFNVAKSLQKIGPILDTNALQGEVKPVLQKLGQDEDMDVKYFAQEAISVLALA
notes: Overexpressed in HEK TER cells; the shRNA-resistant form carries silent substitutions only; also called G8R Aβ mutant
B7: PP2A regulatory subunit B55α (other, UniProt P63151 2-447, looked up)
chain: AGAGGGNDIQWCFSQVKGAVDDDVAEADIISTVEFNHSGELLATGDKGGRVVIFQQEQENKIQSHSRGEYNVYSTFQSHEPEFDYLKSLEIEEKINKIRWLPQKNAAQFLLSTNDKTIKLWKISERDKRPEGYNLKEEDGRYRDPTTVTTLRVPVFRPMDLMVEASPRRIFANAHTYHINSISINSDYETYLSADDLRINLWHLEITDRSFNIVDIKPANMEELTEVITAAEFHPNSCNTFVYSSSKGTIRLCDMRASALCDRHSKLFEEPEDPSNRSFFSEIISSISDVKFSHSGRYMMTRDYLSVKIWDLNMENRPVETYQVHEYLRSKLCSLYENDCIFDKFECCWNGSDSVVMTGSYNNFFRMFDRNTKRDITLEASRENNKPRTVLKPRKVCASGKRKKDEISVDSLDFNKKILHTAWHPKENIIAVATTNNLYIFQDKVN
notes: Endogenous protein found in anti-FLAG immune complexes by immunoblot

What was measured:
[1] = target: T1, wild type (WT) FLAG epitope-tagged version of PP2A Aβ (UniProt P30154 1-601); assay: GST pull-down with glutathione-agarose from 293T lysates, immunoblot
T1 construct: also called wtPP2A Aβ; FLAG-tagged Aβ

[2] = target: T1, wild type (WT) FLAG epitope-tagged …; assay: anti-FLAG agarose co-IP from 293T cells, immunoblot
Procedure: (A) Immunoblot showing phosphorylated RalA and total RalA levels in HEK TER cells expressing shGFP or shAβ. Immunoprecipitations were performed using a phosphoserine antibody. Immunoblotting was performed using anti-Ral-antibody. WCL=whole cell lysate. (B) Immunoblot showing interaction between Aβ and RalA mutants.
To determine if these newly identified serine residues were the target of Aβ-containing PP2A complexes, we replaced each of these three serine residues with alanine using site-directed mutagenesis to generate HA-tagged S11A, S183A and S194A RalA mutants. […] We then determined whether these RalA mutants retained the ability to bind Aβ, as follows. Briefly, Aβ-specific complexes were isolated using anti-FLAG agarose followed by immunoblotting using FLAG or RalA specific antibodies.

[3] = target: T2, PP2A regulatory subunit B56α (human (endogenous in human HEK TER …, UniProt Q15172 2-486, limits assumed)); assay: anti-FLAG co-IP from HEK TER cells, immunoblot, densitometry; +++ >90%, ++ 50-90%, + <50%
T2 construct: Endogenous protein found in anti-FLAG immune complexes by immunoblot

[4] = target: T3, PP2A catalytic subunit Cα (human (endogenous in human HEK TER or …, UniProt P67775 1-309)); assay: as above
T3 construct: Endogenous protein found in anti-FLAG immune complexes by immunoblot or mass spectroscopy; also called PP2A catalytic Cα

[5] = target: T4, PP2A regulatory subunit B56ε (human (endogenous in human HEK TER …, UniProt Q16537 2-467, limits assumed)); assay: as above
T4 construct: Endogenous protein found in anti-FLAG immune complexes by immunoblot

[6] = target: B7; assay: as above
[7] = target: T5, PP2A regulatory subunit B56γ (human (endogenous in human HEK TER …, UniProt Q13362 1-524)); assay: anti-FLAG co-IP from HEK TER cells, immunoblot, densitometry
[8] = target: T1, wild type (WT) FLAG epitope-tagged …; assay: reciprocal co-IP (anti-HA, anti-FLAG agarose) from 293T cells, immunoblot
Procedure: HA-tagged wild-type RalA were generated in the retroviral vectors pPs-neo and pBabe-puro. […] The supernatants from the first immunoprecipitation were sequentially incubated with anti-FLAG-agarose (M2), or anti-HA-agarose (HA7) in reciprocal manner. […] Densitometry analysis was performed by using Scion Image Software.

[9] = target: T5, PP2A regulatory subunit B56γ; assay: anti-FLAG co-IP from HEK TER cells, immunoblot, densitometry; +++ >90%, ++ 50-90%, + <50%
[10] = target: T1, wild type (WT) FLAG epitope-tagged …; assay: anti-FLAG co-IP from HEK TER cells, immunoblot
[11] = target: T6, cancer-derived FLAG-tagged PP2A Aβ mutant L101P/V448A (UniProt P30154 1-601); assay: anti-FLAG co-IP from HEK TER cells, immunoblot, densitometry
T6 construct: Overexpressed in HEK TER cells

[12] = target: T7, cancer-derived FLAG-tagged PP2A Aβ mutant ΔE344-E388 (Homo sapiens (Human), UniProt P30154 2-601); assay: as above
T7 construct: Deletion of exon 9, in-frame deletion of 45 amino acids; Overexpressed in HEK TER cells; also called D344-388

[13] = target: B5; assay: anti-FLAG (M2) co-IP from HEK TER cells, RalA immunoblot
Procedure: (§1) Immunoblot analysis was then performed using antibodies specific to RalA (BD Biosciences, San Jose, Calif.) and FLAG (M2).

[14] = target: T8, cancer-derived FLAG-tagged PP2A Aβ mutant V448A (UniProt P30154 1-601); assay: as above
T8 construct: Overexpressed in HEK TER cells
Procedure: as §1

[15] = target: T9, FLAG-epitope tagged PP2A Aα (UniProt P30153 1-589); assay: anti-FLAG (M2) co-IP from 293T cells, RalA immunoblot
T9 construct: also called wtPP2A Aα; FLAG-tagged Aα

[16] = target: T1, wild type (WT) FLAG epitope-tagged …; assay: as above

T3 sequence (P67775 whole entry): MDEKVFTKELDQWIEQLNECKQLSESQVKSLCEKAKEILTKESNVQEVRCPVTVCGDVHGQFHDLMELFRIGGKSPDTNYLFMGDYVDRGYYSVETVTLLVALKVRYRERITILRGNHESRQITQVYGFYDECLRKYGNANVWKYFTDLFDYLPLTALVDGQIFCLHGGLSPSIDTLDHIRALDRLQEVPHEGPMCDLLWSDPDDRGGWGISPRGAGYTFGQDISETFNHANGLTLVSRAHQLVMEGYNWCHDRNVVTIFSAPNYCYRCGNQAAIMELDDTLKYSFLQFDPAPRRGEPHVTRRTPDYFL
T4 sequence (Q16537 2-467 limits assumed): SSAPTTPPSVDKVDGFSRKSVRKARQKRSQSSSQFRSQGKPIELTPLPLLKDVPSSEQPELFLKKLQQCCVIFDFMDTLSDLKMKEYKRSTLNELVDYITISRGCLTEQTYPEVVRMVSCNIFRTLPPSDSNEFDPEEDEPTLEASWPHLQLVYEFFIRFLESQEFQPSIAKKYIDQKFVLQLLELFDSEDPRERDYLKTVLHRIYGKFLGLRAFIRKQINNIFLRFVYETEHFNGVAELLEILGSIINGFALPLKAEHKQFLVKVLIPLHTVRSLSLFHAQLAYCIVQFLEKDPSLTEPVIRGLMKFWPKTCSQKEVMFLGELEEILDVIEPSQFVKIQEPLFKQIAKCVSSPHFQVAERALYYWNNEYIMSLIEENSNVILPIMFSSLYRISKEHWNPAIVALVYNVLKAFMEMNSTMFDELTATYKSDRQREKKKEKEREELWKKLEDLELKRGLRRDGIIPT
T2 sequence (Q15172 2-486 limits assumed): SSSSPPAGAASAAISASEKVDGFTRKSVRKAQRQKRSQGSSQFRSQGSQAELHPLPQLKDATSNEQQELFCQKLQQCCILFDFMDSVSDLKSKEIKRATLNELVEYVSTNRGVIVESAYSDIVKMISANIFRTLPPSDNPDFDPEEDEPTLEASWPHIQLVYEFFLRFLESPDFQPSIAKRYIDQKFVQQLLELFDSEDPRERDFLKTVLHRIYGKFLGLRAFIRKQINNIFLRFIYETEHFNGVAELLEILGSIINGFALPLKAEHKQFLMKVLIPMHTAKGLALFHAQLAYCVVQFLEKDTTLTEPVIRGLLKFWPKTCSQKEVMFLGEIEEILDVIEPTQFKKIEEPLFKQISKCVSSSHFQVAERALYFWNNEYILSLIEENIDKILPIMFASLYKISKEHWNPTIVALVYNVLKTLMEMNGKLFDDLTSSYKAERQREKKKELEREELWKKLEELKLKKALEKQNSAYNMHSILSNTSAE
T5 sequence (Q13362 whole entry): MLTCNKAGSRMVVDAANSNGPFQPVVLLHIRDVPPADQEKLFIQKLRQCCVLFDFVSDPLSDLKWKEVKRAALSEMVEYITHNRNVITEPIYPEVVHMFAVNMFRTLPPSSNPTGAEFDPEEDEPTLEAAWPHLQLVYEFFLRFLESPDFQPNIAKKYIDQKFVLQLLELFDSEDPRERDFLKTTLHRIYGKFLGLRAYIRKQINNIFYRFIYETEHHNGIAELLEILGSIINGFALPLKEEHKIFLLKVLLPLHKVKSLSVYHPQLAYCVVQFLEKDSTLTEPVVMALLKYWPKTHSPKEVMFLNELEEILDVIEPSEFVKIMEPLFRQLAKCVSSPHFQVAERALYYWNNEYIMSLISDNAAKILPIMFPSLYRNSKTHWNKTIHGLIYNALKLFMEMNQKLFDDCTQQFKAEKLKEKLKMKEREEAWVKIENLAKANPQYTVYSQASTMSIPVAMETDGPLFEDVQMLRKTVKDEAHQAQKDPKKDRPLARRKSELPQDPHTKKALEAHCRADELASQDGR
T1 sequence (P30154 whole entry): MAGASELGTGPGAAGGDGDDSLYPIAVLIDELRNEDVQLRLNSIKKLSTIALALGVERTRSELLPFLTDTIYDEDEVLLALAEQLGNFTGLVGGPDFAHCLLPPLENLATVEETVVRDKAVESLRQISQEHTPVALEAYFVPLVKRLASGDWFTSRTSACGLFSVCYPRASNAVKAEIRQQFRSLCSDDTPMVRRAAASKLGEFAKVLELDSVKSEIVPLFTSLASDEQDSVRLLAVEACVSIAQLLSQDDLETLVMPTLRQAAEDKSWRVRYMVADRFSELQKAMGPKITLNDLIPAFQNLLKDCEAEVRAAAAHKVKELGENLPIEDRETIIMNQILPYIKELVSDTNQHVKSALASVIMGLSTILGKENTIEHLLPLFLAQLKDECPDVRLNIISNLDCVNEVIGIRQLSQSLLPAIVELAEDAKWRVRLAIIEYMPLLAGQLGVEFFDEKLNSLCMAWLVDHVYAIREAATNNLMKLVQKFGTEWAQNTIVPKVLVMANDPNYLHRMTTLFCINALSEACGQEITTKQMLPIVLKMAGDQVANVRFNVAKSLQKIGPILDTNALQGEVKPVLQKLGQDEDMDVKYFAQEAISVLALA
T8 sequence (P30154 whole entry V448A): as the sequence (P30154 whole entry) above, with V448A counted along it
T9 sequence (P30153 whole entry): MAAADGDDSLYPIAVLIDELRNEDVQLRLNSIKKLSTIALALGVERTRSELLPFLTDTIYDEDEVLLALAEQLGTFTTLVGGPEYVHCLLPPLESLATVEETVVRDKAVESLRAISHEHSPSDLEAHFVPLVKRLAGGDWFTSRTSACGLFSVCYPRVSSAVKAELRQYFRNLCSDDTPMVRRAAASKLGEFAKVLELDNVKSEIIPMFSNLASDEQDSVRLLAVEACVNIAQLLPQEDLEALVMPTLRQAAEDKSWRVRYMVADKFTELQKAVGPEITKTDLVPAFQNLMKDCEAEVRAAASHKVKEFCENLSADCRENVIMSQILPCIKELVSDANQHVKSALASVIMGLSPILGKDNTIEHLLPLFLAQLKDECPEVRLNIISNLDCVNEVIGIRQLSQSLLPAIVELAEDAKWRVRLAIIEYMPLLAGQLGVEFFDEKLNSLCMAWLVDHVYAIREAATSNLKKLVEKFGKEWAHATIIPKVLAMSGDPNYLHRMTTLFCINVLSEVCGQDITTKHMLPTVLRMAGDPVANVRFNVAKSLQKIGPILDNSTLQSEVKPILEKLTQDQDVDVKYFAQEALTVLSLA

B1: GST-tagged SV40 small t antigen (ST) (other)
chain: MDKVLNREESLQLMDLLGLERSAWGNIPLMRKAYLKKCKEFHPDKGGDEEKMKKMNTLYKKMEDGVKYAHQPDFGGFWDATEVFASSLNPGVDAMYCKQWPECAKKMSANCICLLCLLRMKHENRKLYRKDPLVWVDCYCFDCFRMWFGLDLCEGTLLLWCDIIGQTTYRDLKL
notes: also called GST-tagged ST; SV40 ST; not shown: GST tag
- binding result [1]: no binding

B2: HA-tagged RalA S11A mutant (enzyme, not shown: small tags and cut ends)
chain: MAANKPKGQNALALHKVIMVGSGGVGKSALTLQFMYDEFVEDYEPTKADSYRKKVVLDGEEVQIDILDTAGQEDYAAIRDNYFRSGEGFLCVFSITEMESFAATADFREQILRVKEDENVPFLLVGNKSDLEDKRQVSVEEAKNRAEQWNVNYVETSAKTRANVDKVFFDLMREIRARKMEDSKEKNGKKKRKSLAKRIRERC
notes: also called S11A RalA mutant
- binding result [2]: binds

B3: cancer-derived FLAG-tagged PP2A Aβ mutant V545A (other, UniProt P30154 1-601, looked up, not shown: small tags and cut ends)
chain: MAGASELGTGPGAAGGDGDDSLYPIAVLIDELRNEDVQLRLNSIKKLSTIALALGVERTRSELLPFLTDTIYDEDEVLLALAEQLGNFTGLVGGPDFAHCLLPPLENLATVEETVVRDKAVESLRQISQEHTPVALEAYFVPLVKRLASGDWFTSRTSACGLFSVCYPRASNAVKAEIRQQFRSLCSDDTPMVRRAAASKLGEFAKVLELDSVKSEIVPLFTSLASDEQDSVRLLAVEACVSIAQLLSQDDLETLVMPTLRQAAEDKSWRVRYMVADRFSELQKAMGPKITLNDLIPAFQNLLKDCEAEVRAAAAHKVKELGENLPIEDRETIIMNQILPYIKELVSDTNQHVKSALASVIMGLSTILGKENTIEHLLPLFLAQLKDECPDVRLNIISNLDCVNEVIGIRQLSQSLLPAIVELAEDAKWRVRLAIIEYMPLLAGQLGVEFFDEKLNSLCMAWLVDHVYAIREAATNNLMKLVQKFGTEWAQNTIVPKVLVMANDPNYLHRMTTLFCINALSEACGQEITTKQMLPIVLKMAGDQAANVRFNVAKSLQKIGPILDTNALQGEVKPVLQKLGQDEDMDVKYFAQEAISVLALA
notes: Overexpressed in HEK TER cells
- binding level (percent, co-immunoprecipitation densitometry) [3]: < 50%
- binding level (percent, co-immunoprecipitation densitometry) [4]: < 50%
- binding level (percent, co-immunoprecipitation densitometry) [5]: < 50%
- binding level (percent, co-immunoprecipitation densitometry) [6]: > 90%
- binding result [7]: no binding

B4: HA-tagged wild-type RalA (enzyme, not shown: small tags and cut ends)
chain: MAANKPKGQNSLALHKVIMVGSGGVGKSALTLQFMYDEFVEDYEPTKADSYRKKVVLDGEEVQIDILDTAGQEDYAAIRDNYFRSGEGFLCVFSITEMESFAATADFREQILRVKEDENVPFLLVGNKSDLEDKRQVSVEEAKNRAEQWNVNYVETSAKTRANVDKVFFDLMREIRARKMEDSKEKNGKKKRKSLAKRIRERC
notes: phosphorylation state not separated; also called HA-tagged RalA; HA-RalA
- binding result [8]: binds

Binder: B5
- binding level (percent, co-immunoprecipitation densitometry) [3]: > 90%
- binding level (percent, co-immunoprecipitation densitometry) [4]: 50 to 90%
- binding level (percent, co-immunoprecipitation densitometry) [5]: > 90%
- binding level (percent, co-immunoprecipitation densitometry) [9]: < 50%
- binding level (percent, co-immunoprecipitation densitometry) [6]: > 90%

B6: cancer-derived FLAG-tagged PP2A Aβ mutant P65S (other, UniProt P30154 1-601, looked up, not shown: small tags and cut ends)
chain: MAGASELGTGPGAAGGDGDDSLYPIAVLIDELRNEDVQLRLNSIKKLSTIALALGVERTRSELLSFLTDTIYDEDEVLLALAEQLGNFTGLVGGPDFAHCLLPPLENLATVEETVVRDKAVESLRQISQEHTPVALEAYFVPLVKRLASGDWFTSRTSACGLFSVCYPRASNAVKAEIRQQFRSLCSDDTPMVRRAAASKLGEFAKVLELDSVKSEIVPLFTSLASDEQDSVRLLAVEACVSIAQLLSQDDLETLVMPTLRQAAEDKSWRVRYMVADRFSELQKAMGPKITLNDLIPAFQNLLKDCEAEVRAAAAHKVKELGENLPIEDRETIIMNQILPYIKELVSDTNQHVKSALASVIMGLSTILGKENTIEHLLPLFLAQLKDECPDVRLNIISNLDCVNEVIGIRQLSQSLLPAIVELAEDAKWRVRLAIIEYMPLLAGQLGVEFFDEKLNSLCMAWLVDHVYAIREAATNNLMKLVQKFGTEWAQNTIVPKVLVMANDPNYLHRMTTLFCINALSEACGQEITTKQMLPIVLKMAGDQVANVRFNVAKSLQKIGPILDTNALQGEVKPVLQKLGQDEDMDVKYFAQEAISVLALA
notes: as for B3
- binding level (percent, co-immunoprecipitation densitometry) [3]: < 50%
- binding level (percent, co-immunoprecipitation densitometry) [4]: 50 to 90%
- binding level (percent, co-immunoprecipitation densitometry) [5]: > 90%
- binding level (percent, co-immunoprecipitation densitometry) [9]: < 50%
- binding level (percent, co-immunoprecipitation densitometry) [6]: > 90%

Binder: B7
- binding result [10]: binds
- binding result [11]: no binding
- binding result [12]: no binding

B8: endogenous RalA (enzyme)
chain: MAANKPKGQNSLALHKVIMVGSGGVGKSALTLQFMYDEFVEDYEPTKADSYRKKVVLDGEEVQIDILDTAGQEDYAAIRDNYFRSGEGFLCVFSITEMESFAATADFREQILRVKEDENVPFLLVGNKSDLEDKRQVSVEEAKNRAEQWNVNYVETSAKTRANVDKVFFDLMREIRARKMEDSKEKNGKKKRKSLAKRIRERC
notes: Endogenous protein in cell lysates; also called small GTPase RalA
- binding result [13]: no binding
- binding result [14]: no binding
- binding result [15]: no binding
- binding result [16]: binds
